According to patent US20230365693A1 (BIONTECH, published 2023):
Several values for one entry are separate records, joined by “and”; a condition that tells them apart may be missing. Identical values can stand only once.

What was measured:
[1] = target: T1, human PD-1, full-length, expressed on cells (human (Homo sapiens), UniProt Q15116 25-288); experiment: cell-based or functional assay
[2] = target: T1, human PD-1, full-length, expressed on …; experiment: cell-based or functional assay; remark: listed apart in the source

T1 sequence (Q15116 25-288): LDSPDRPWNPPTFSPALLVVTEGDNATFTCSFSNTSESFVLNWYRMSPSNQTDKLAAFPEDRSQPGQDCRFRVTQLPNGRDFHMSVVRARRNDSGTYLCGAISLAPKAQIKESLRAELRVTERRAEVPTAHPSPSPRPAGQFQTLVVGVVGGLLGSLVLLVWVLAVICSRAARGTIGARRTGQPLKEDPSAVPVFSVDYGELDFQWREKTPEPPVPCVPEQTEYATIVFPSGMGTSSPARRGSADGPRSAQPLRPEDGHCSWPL

B1: IgG1-PD1 (antibody)
heavy: QVQLVESGGGLVQPGTSLRLSCSVSGFSLYSYNMGWVRQAPGKGLEYIGIISGGTIGHYASWAKGRFTISRDTSKTTLYLQMNSLTTEDTATYFCARAFYDDYDYNVWGPGTLVTVSSASTKGPSVFPLAPSSKSTSGGTAALGCLVKDYFPEPVTVSWNSGALTSGVHTFPAVLQSSGLYSLSSVVTVPSSSLGTQTYICNVNHKPSNTKVDKRVEPKSCDKTHTCPPCPAPEFERGPSVFLFPPKPKDTLMISRTPEVTCVVVDVSHEDPEVKFNWYVDGVEVHNAKTKPREEQYNSTYRVVSVLTVLHQDWLNGKEYKCKVSNKALPAPIEKTISKAKGQPREPQVYTLPPSREEMTKNQVSLTCLVKGFYPSDIAVEWESNGQPENNYKTTPPVLDSDGSFFLYSKLTVDKSRWQQGNVFSCSVMHEALHNHYTQKSLSLSPG
light: AIQLTQSPSSLSASVGGTVTITCQSSQSVYGNNQLSWYQQKPGQPPKLLIYQASKLETGVPSRFRGSGSGTQFTLTISSLQSEDFATYYCAGGYSSSSDTTFGGGTEVVVKRTVAAPSVFIFPPSDEQLKSGTASVVCLLNNFYPREAKVQWKVDNALQSGNSQESVTEQDSKDSTYSLSSTLTLSKADYEKHKVYACEVTHQGLSSPVTKSFNRGEC
In the case of B1, the “EC50 in the antigen-specific proliferation assay (CD8+ T-cell expansion index)” value [1] is reported as 0.0124 µg/mL and 0.0837 nM and the “EC50 of PD-1/PD-L1 checkpoint blockade, bioluminescent cell-based reporter assay” value [2] is reported as 0.165 µg/mL and 1.12 nM.
